Source: article PMC12700550, “DLL4^+ neutrophils promote Notch1-mediated endothelial PANoptosis to exacerbate acute lung injury in sepsis” (The Journal of Clinical Investigation, 2025)
Values joined by “and” are separate entries in the source; they are usually repeats but may differ in a detail not shown here. Equal values may be shown once.

System: DLL4 expression on WT BMDNs
Assay: Frequency of DLL4^+ neutrophils (Ly6G^+DLL4^+), WT mouse BMDNs, flow cytometry
Assay type: cell-based
Conditions: for percentage of DLL4^+ neutrophils (Figure 1C): eCIRP 1 μg/mL, WT BMDNs 1 × 10^6/mL
Description: Mice were anesthetized by 2% isoflurane inhalation, and the femora and tibiae were dissected. The bone marrow was flushed out with calcium- and magnesium-free HBSS using a 25-gauge needle into a Petri dish. Suspensions of cells were filtered through a 70 μm cell strainer (Corning), and bone marrow–derived neutrophils (BMDNs) were purified by negative selection using the EasySep mouse neutrophil enrichment kit (catalog 19762, STEMCELL Technologies). The purity of the sorted neutrophils was assessed by staining of the cells with APC-Ly6G antibody (clone 1A8, BioLegend) using a BD LSRFortessa flow cytometer (BD Biosciences).
In the time course experiments, BMDNs (1 × 10^6) were stimulated with eCIRP (1 μg/mL) for 2, 4, 6, and 12 hours. In the dose-response experiments, BMDNs (1 × 10^6) were treated with 0, 0.2, 0.5, or 1.0 μg/mL eCIRP for 12 hours. Single-cell suspensions were then stained with APC-conjugated anti–mouse Ly6G (clone 1A8, catalog 127614, BioLegend) and PE-conjugated anti-DLL4 (clone HMD4-1, catalog 130807, BioLegend), and analyzed by flow cytometry (BD LSRFortessa, BD Biosciences) to detect DLL4^+ neutrophils (Ly6G^+DLL4^+). Unstained cells were used to set voltages, and single-color controls were applied for compensation adjustment. Two hundred fifty microliters of whole blood obtained from sham, CLP, and PBS- or NDI-treated mice was taken into Falcon 15 mL conical tubes, and 5 mL red blood cell (RBC) lysis buffer (BD Biosciences) was added. After 1–2 minutes of incubation at room temperature, the samples were centrifuged at 300g for 10 minutes. Supernatants were aspirated, and the cell pellet was washed by suspension of the cells in 5 mL fluorescence-activated cell sorting (FACS) buffer containing 2% fetal bovine serum and centrifuged at 300g for 10 minutes. The supernatant was discarded, and the cell pellet was dissolved in […] FACS buffer. Lung tissues were finely diced using a sterile surgical blade and suspended in Ca^++- and Mg^++-free Hanks balanced salt solution (HBSS; Corning). Tissue digestion was performed in HBSS containing 100 U/mL of collagenase I (Worthington Biochemical) and 20 U/mL DNase I (Worthington Biochemical) at 37°C for 30 minutes with periodic shaking. Digested tissue fragments were crushed with a 10 mL syringe plunger and passed through a 70 μm cell strainer (Corning). Lysis of RBCs in lung cell suspensions was conducted using RBC lysis buffer (BD Biosciences). The isolated lung cells were counted using a microscope (Eclipse TS100, Nikon). To detect mouse DLL4^+ neutrophils, single-cell suspensions were stained with anti-mouse APC-Ly6G (clone 1A8, catalog 127614, BioLegend) and PE-DLL4 (clone HMD4-1, catalog 130807, BioLegend) and assessed for the detection of DLL4^+ neutrophils (Ly6G^+DLL4^+) by flow cytometry (BD LSRFortessa, BD Biosciences). Unstained cells were used to establish the flow cytometer voltage setting, and single-color positive controls were used to adjust the compensation. The acquisition was performed on 50,000 events using a BD LSRFortessa flow cytometer (BD Biosciences), and data were analyzed with FlowJo software (Tree Star). BMDNs were stimulated with eCIRP ([…]) for 2 hours. This time point was selected to maximize the viability and functionality of DLL4^+ neutrophils for downstream experiments, given their relatively short lifespan. After stimulation, cells were washed with PBS and resuspended in 1 mL FACS buffer, and DLL4^+ neutrophils (Ly6G^+DLL4^+) and DLL4^– neutrophils (Ly6G^+DLL4^–) were sorted by flow cytometry using a BD FACSAria IIu cell sorter (BD Biosciences).

B1: eCIRP: extracellular cold-inducible RNA-binding protein; recombinant murine, produced in our laboratory (protein, UniProt P60824 1-172, looked up)
Cold-inducible RNA-binding …: MASDEGKLFVGGLSFDTNEQALEQVFSKYGQISEVVVVKDRETQRSRGFGFVTFENIDDAKDAMMAMNGKSVDGRQIRVDQAGKSSDNRSRGYRGGSAGGRGFFRGGRSRGRGFSRGGGDRGYGGGRFESRSGGYGGSRDYYASRSQGGSYGYRSSGGSYRDSYDSYATHNE
In the case of B1, the “percentage of DLL4^+ neutrophils (Figure 1D)” value (“percentage … (Figure 1D)” below) (0.2 μg/mL rmCIRP, 12 h, WT BMDNs, individual replicates) is reported as 6.79% and 7.39% and 5.07% and 2.01% and 1.58% and 2.94%, the “percentage … (Figure 1D)” value (0.5 μg/mL rmCIRP, 12 h, WT BMDNs, individual replicates) is reported as 9.65% and 8% and 2.23% and 3.04% and 4.63% and 3.6% and the “increase in DLL4^+ neutrophils compared with baseline” value (1 μg/mL eCIRP, 12 hours) is reported as “greater than 10 fold”. The “percentage … (Figure 1D)” value (1 μg/mL rmCIRP, 12 h, WT BMDNs, individual replicates) was 9.46% and 10.2% and 10.3% and 9.59% and 14.64% and 11.2% and 19.6%, the “frequency of DLL4^+ neutrophils (Figure 1E)” value (WT BMDNs, 1 μg/mL eCIRP, 12 h, individual replicates) was 10.6% and 7.8% and 13.4% and 4.22% and 4.99% and the “percentage of DLL4^+ neutrophils (Figure 1C)” value (“percentage … (Figure 1C)” below) (2 h, individual replicates) was 2.37% and 2.69% and 2.61% and 1.38% and 2.29% and 2.02%. The “percentage … (Figure 1C)” value (4 h, individual replicates) was 2.2% and 3.33% and 2.32% and 3.85% and 1.73% and 1.34%, the “percentage … (Figure 1C)” value (6 h, individual replicates) was 5.6% and 3.69% and 4.86% and 3.28% and 2.75% and 2.78% and the “percentage … (Figure 1C)” value (12 h, individual replicates) was 25.8% and 23.2% and 5.76% and 10.3% and 13.1% and 19.7%. For the same molecule, the “effect on frequency of DLL4^+ neutrophils” value (mouse BMDNs) was “significantly increased the frequency (percentage) of DLL4^+ neutrophils in a time- and dose-dependent manner”.
